Data on one substance can be found in PMC3260246.

Experiment in all cases: membrane filtration equilibrium binding (Scatchard plot); 12.5 µM wild-type or mutant small heat shock protein incubated 1 hr at 60°C with 2–18 µM γ-crystallin in 50 mM phosphate buffer, 100 mM NaCl, pH 7.2; unbound substrate separated through a 100-kDa cut off Microcon filter; n per subunit of chaperone
In experiment [1] the target is Hsp27 R12A mutant (human) (UniProt P04792).
The target in experiment [2] is wild-type human Hsp27 (human) (UniProt P04792).
Experiment [3] deals with wild-type human αA-crystallin (human) (UniProt P02489).
Experiment [4] deals with wild-type human αB-crystallin (human) (UniProt P02511).
The target in experiment [5] is αB-crystallin R12A mutant (human) (UniProt P02511).

For orientation: Kd means the concentration at which binding is half-saturated. High values mean lower affinity, low ones higher affinity. By stoichiometry N is commonly meant a count of units in the complex or per binding partner.

Sequence of bovine γ-crystallin (P02526 whole entry): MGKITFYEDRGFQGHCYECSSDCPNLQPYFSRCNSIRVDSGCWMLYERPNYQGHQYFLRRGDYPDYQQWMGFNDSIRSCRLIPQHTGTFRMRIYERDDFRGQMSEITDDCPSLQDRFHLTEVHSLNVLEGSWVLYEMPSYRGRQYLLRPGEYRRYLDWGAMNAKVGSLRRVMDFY
Sequence of Hsp27 R12A mutant (human) (P04792 whole entry R12A): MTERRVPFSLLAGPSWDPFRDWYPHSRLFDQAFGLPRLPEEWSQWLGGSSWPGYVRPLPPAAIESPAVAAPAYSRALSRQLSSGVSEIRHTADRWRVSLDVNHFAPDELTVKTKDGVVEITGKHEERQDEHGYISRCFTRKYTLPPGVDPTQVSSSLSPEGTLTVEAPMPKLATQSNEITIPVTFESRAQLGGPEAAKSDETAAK
Sequence of wild-type human Hsp27 (human) (P04792 whole entry): as the sequence (P04792 whole entry R12A) above, with A12R counted along it
Sequence of wild-type human αB-crystallin (human) (P02511 whole entry): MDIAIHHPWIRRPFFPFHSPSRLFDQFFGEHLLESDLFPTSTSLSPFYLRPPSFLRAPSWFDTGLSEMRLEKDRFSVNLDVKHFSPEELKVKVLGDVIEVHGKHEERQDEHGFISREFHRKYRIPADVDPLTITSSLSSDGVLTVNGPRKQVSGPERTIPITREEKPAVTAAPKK
Sequence of αB-crystallin R12A mutant (human) (P02511 whole entry R12A): as the sequence (P02511 whole entry) above, with R12A counted along it
Sequence of wild-type human αA-crystallin (human) (P02489 whole entry): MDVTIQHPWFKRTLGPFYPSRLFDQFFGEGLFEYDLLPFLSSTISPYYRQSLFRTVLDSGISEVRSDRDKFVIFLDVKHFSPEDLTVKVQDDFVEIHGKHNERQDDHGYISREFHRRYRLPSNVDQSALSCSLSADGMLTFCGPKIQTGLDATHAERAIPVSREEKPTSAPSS

Regarding “bovine γ-crystallin (from UniProt P02526 1-175) (natural protein)”, the Kd in experiment [1] stood at 5.79 µM; in experiment [2], 5.91 µM; in experiment [4], 2.84 µM; in experiment [5] it was 3.24 µM. For the same substance, the stoichiometry N in experiment [1] is 2.87; in experiment [2] it was 2.9; in experiment [3], 3.61; in experiment [4] it was 2.34; in experiment [5], 1.68.
